Assay results: article PMC2172667

Columns and labels:
[1] = target: GST-EPLIN-α (recombinant full-length EPLIN-α GST-fusion protein) (UniProt Q9UHB6); test: pull-down
F-actin = F-actin (UniProt P68135); test: co-sedimentation

his-EPLIN-α, sequence (Q9UHB6 161-759): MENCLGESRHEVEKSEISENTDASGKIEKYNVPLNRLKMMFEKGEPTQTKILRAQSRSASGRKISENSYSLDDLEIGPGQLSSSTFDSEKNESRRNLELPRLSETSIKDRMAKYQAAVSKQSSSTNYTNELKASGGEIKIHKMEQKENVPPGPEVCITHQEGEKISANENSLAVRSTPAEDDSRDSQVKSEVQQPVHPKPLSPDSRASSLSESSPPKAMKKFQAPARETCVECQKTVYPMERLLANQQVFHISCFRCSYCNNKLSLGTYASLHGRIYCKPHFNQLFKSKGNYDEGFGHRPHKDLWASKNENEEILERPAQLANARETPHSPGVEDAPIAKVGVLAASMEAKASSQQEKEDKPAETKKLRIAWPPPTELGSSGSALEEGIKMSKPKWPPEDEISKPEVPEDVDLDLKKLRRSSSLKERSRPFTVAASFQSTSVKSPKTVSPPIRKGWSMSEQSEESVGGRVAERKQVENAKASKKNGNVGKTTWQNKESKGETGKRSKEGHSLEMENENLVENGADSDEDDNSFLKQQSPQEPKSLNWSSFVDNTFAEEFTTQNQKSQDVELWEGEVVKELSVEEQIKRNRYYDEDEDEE
GST-EPLIN-α (recombinant full-length EPLIN-α GST-fusion protein), sequence (Q9UHB6 161-759): as above

Kd (F-actin)	stoichiometry N (actin molecules per his-EPLIN-α) (F-actin)	Substance	percent of actin monomers pelleted [1]
		G-actin (from UniProt P68135 1-377) (natural protein)	10%
100 nM	2	his-EPLIN-α (from UniProt Q9UHB6-2 1-599) (natural protein)	
